T1: Myc-Ube2G2 (Mus musculus, UniProt P60605)
T1 construct: expressed in transfected cells; host or cells: HEK 293T
T1 sequence (P60605 1-165): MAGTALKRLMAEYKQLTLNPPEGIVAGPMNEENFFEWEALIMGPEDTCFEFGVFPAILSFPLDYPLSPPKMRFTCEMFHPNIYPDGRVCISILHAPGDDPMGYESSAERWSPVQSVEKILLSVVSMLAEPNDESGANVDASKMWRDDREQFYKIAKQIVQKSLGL

B1: gp78611: gp78 truncated after residue 611 of SEQ ID NO:2 (protein, listed as Homo sapiens)
chain: MPLLFLERFPWPSLRTYTGLSGLALLGTIISAYRALSQPEAGPGEPDQLTASLQPEPPAPARPSAGGPRARDVAQYLLSDSLFVWVLVNTACCVLMLVAKLIQCIVFGPLRVSERQHLKDKFWNFIFYKFIFIFGVLNVQTVEEVVMWCLWFAGLVFLHLMVQLCKDRFEYLSFSPTTPMSSHGRVLSLLVAMLLSCCGLAAVCSITGYTHGMHTLAFMAAESLLVTVRTAHVILRYVIHLWDLNHEGTWEGKGTYVYYTDFVMELTLLSLDLMHHIHMLLFGNIWLSMASLVIFMQLRYLFHEVQRRIRRHKNYLRVVGNMEARFAVATPEELAVNNDDCAICWDSMQAARKLPCGHLFHNSCLRSWLEQDTSCPTCRMSLNIADNNRVREEHQGENLDENLVPVAAAEGRPRLNQHNHFFHFDGSRIASWLPSFSVEVMHTTNILGITQASNSQLNAMAHQIQEMFPQVPYHLVLQDLQLTRSVEITTDNILEGRIQVPFPTQRSDSIRPALNSPVERPSSDQEEGETSAQTERVPLDLSPRLEETLDFGEVEVEPSEVEDFEARGSRFSKSADERQRMLVQRKDELLQQARKRFLNKSSEDDAASESF
B2: gp78595: gp78 truncated after amino acid 595 of SEQ ID NO:2 (protein, listed as Homo sapiens)
chain: MPLLFLERFPWPSLRTYTGLSGLALLGTIISAYRALSQPEAGPGEPDQLTASLQPEPPAPARPSAGGPRARDVAQYLLSDSLFVWVLVNTACCVLMLVAKLIQCIVFGPLRVSERQHLKDKFWNFIFYKFIFIFGVLNVQTVEEVVMWCLWFAGLVFLHLMVQLCKDRFEYLSFSPTTPMSSHGRVLSLLVAMLLSCCGLAAVCSITGYTHGMHTLAFMAAESLLVTVRTAHVILRYVIHLWDLNHEGTWEGKGTYVYYTDFVMELTLLSLDLMHHIHMLLFGNIWLSMASLVIFMQLRYLFHEVQRRIRRHKNYLRVVGNMEARFAVATPEELAVNNDDCAICWDSMQAARKLPCGHLFHNSCLRSWLEQDTSCPTCRMSLNIADNNRVREEHQGENLDENLVPVAAAEGRPRLNQHNHFFHFDGSRIASWLPSFSVEVMHTTNILGITQASNSQLNAMAHQIQEMFPQVPYHLVLQDLQLTRSVEITTDNILEGRIQVPFPTQRSDSIRPALNSPVERPSSDQEEGETSAQTERVPLDLSPRLEETLDFGEVEVEPSEVEDFEARGSRFSKSADERQRMLVQRKDELLQQARK
B3: wild type gp78: full-length wild type human gp78 ubiquitin ligase expressed in cells (protein, listed as Homo sapiens)
chain: MPLLFLERFPWPSLRTYTGLSGLALLGTIISAYRALSQPEAGPGEPDQLTASLQPEPPAPARPSAGGPRARDVAQYLLSDSLFVWVLVNTACCVLMLVAKLIQCIVFGPLRVSERQHLKDKFWNFIFYKFIFIFGVLNVQTVEEVVMWCLWFAGLVFLHLMVQLCKDRFEYLSFSPTTPMSSHGRVLSLLVAMLLSCCGLAAVCSITGYTHGMHTLAFMAAESLLVTVRTAHVILRYVIHLWDLNHEGTWEGKGTYVYYTDFVMELTLLSLDLMHHIHMLLFGNIWLSMASLVIFMQLRYLFHEVQRRIRRHKNYLRVVGNMEARFAVATPEELAVNNDDCAICWDSMQAARKLPCGHLFHNSCLRSWLEQDTSCPTCRMSLNIADNNRVREEHQGENLDENLVPVAAAEGRPRLNQHNHFFHFDGSRIASWLPSFSVEVMHTTNILGITQASNSQLNAMAHQIQEMFPQVPYHLVLQDLQLTRSVEITTDNILEGRIQVPFPTQRSDSIRPALNSPVERPSSDQEEGETSAQTERVPLDLSPRLEETLDFGEVEVEPSEVEDFEARGSRFSKSADERQRMLVQRKDELLQQARKRFLNKSSEDDAASESFLPLEGASSDPVTLRRRMLAAAAERRLQKQQTS

How the values were obtained:
Format in all cases: cell-based
Myc-Ube2G2 = molecular target: T1, Myc-Ube2G2; experiment: Co-immunoprecipitation with co-expressed Myc-Ube2G2 in cells; conditions: anti-Myc IP, anti-gp78 IB; MG132 8 hr
Protocol: (§1) Transfections of HT1080, NIH 3T3 and HEK 293T cells were carried out ˜24 hr after plating using Polyfect (Qiagen, Valencia, Calif.) and cells harvested after ˜48 hr. J558 cells were transfected by electroporation using Bio-rad GENE pulser II at settings of 250 v, 950uF. Vector without insert was used to equalize total plasmid. In most experiments 0.15 μg of pEGFP-C1 served as an internal control. For experiments not involving immunoprecipitation, 6×10^5 cells were plated in 6 well plates and cell lysis was with Mammalian Protein Extraction Reagent (Pierce). For immunoprecipitation, 2.4×10^6 cells were seeded in 100 mm dishes and cells were lysed in RIPA buffer (1×PBS, 1% Nonidet P40. 0.5% sodium deoxycholate, 0.1% SDS). Lysis buffers were supplemented with Protease Inhibitor Cocktail (Sigma) and 10 mM iodoacetamide. Supernatants were analyzed after a 10,000×g centrifugation using standard techniques for immunoprecipitation, SDS-PAGE, immunoblotting and ECL. Treatment of cells with MG132 (Sigma) was at 50 μM for eight hr. Cycloheximnide was used at 50 μg/ml. All cells were collected at the end of the six hr chase.
FIG. 5 depicts the results of immunoprecipitation of Ube2G2 (MmUbc7) from HEK 293T cells co-transfected with a plasmid encoding myc-tagged MmUbc7/Ube2G2 together with s plasmid encoding various forms of gp78. HEK 293T cells were transfected with a plasmid encoding myc-tagged MmUbc7/Ube2G2 together with plasmids encoding various forms of gp78. After 48 hours, cells were harvested and co-immuntoprecipitated with an anti-Myc tage. Anti-gp78 was used for detection. “R2M” indicates a mutation of two crucial residues in the RING finger. “T” indicates C terminal truncations at the indicated amino acids. ΔB is the mutation indicated above in FIG. 4 in the context of the full length gp78 and “Cue12M” indicates mutations in the Cue domain of gp78.
To confirm the significance of the Ube2G2 binding site in cells, a variety of mutations and truncations of full-length gp78 were tested for binding of co-expressed Myc-Ube2G2 (FIG. 19A). Cells were treated with the proteasome inhibitor MG132 in an attempt to equalize levels of the various forms of gp78.

ERAD substrate CD3-δ [1] = experiment: Cycloheximide chase of CD3-δ in co-transfected cells; conditions: co-transfection with HA-CD3-δ
Protocol: as §1
(§2) To evaluate protein turnover in more detail, cycloheximide chase experiments were performed (FIGS. 20C and 20D). […] In agreement with FIG. 20A, CD3-δ degradation was accelerated with wild type gp78 (FIGS. 20C and 20D middle panels; effects of full-length forms of gp78 on CD3-δ from FIGS. 20C and 20D are quantified in FIG. 20E).

gp78 [2] = experiment: Cycloheximide chase of gp78 in transfected cells; conditions: compared to wild type gp78
Protocol: as §1, §2

ERAD substrate CD3-δ [3] = experiment: CD3-δ level in co-transfected cells by immunoblotting; conditions: co-transfection with CD3-δ; immunoblot
Protocol: as §1
FIG. 7 depicts the stabilization of CD3-δ protein in cells transfected with the G2BD, but not with the G2BD with amino acids 579-584 (of SEQ ID NO:2) mutated. HEK 293T cells were transfected with the ERAD substrate CD3-δ along with the indicated GFP fusions of gp78. The left and right sides are two separate experiments.
To test this, GFP fusions of either a minimal E2 binding domain (GFP-574-611) or a more extended region that includes the C-terminus of gp78 (GFP-574-643) were evaluated (FIG. 21A). […] To assess this further, the C-terminal region of gp78 was fused to the eight amino acid Flag tag. […] Mdm2 is a RING finger E3 for both itself and p53 that is neither an ERAD substrate nor known to utilize Ube2G2 as an E2. […] To establish with certainty that the effect observed with expression of the Ube2G2 binding site is a consequence of binding endogenous E2, and not due to other unanticipated effects, cells were co-transfected with increasing amounts of Ube2G2 (FIG. 21C, lanes 3 and 4). […] These findings clearly establish that the isolated E2 binding site has the potential to markedly alter ERAD of CD3-δ. To ensure the effect observed was not peculiar to one substrate, TCR-α was evaluated (FIG. 21D).

gp78 [4] = experiment: gp78 ubiquitylation in transfected cells (IP anti-gp78, IB anti-ubiquitin); conditions: 50 μM MG132 eight hours
Protocol: FIGS. 20A-20E depict the requirement of multiple domains of gp78 to target itself and a heterologous ERAD substrate. (FIG. 20A) Cells were co-transfected with the indicated forms of full length gp78 together with CD3-δ and lysates analyzed by IB. (B) Cells were transfected with wild type and mutant gp78 plasmids as indicated. Samples were treated with 50 μM MG132 for eight hours, lysates IP'ed with anti-gp78 followed by […] with either antiubiquitin (upper) or anti-gp78 (lower). Arrow in upper panel indicates migration of unmodified gp78. (FIGS. 20C and 20D) Cells were co-transfected with HA-CD3-δ and wild type (WT) or mutant forms of gp78. Cells were treated with cycloheximide (CHX) as indicated. (FIG. 20E) Graphic representation of CD3-δ levels from FIGS. 20C and 20D (fall length gp78 transfections only), Cue-m1, 2 is the average of data shown in FIGS. 20C and 20D.
as §1, with “Lysis buffers were supplemented with Protease Inhibitor Cocktail (Sigma) and 10 mM iodoacetamide.” left out, “Treatment of cells with MG132 (Sigma) was at 50 μM for eight hr. Cycloheximnide was used at 50 μg/ml. All cells were collected at the end of the six hr chase.” left out
gp78 is degraded in a proteasome-dependent manner, and deletion of the entire cytoplasmic domain results in its stabilization. […] To determine the significance of the RING finger, Cue domain and Ube2G2 binding site on gp78 stability, mutations of each were evaluated within full-length gp78. […]

| Molecule | E2 association of full-length gp78 forms with co-expressed Myc-Ube2G2 (Myc-Ube2G2) | effect on CD3-δ degradation (ERAD substrate CD3-δ [1]) | gp78 stability (gp78 [2]) | effect on CD3-δ level (stabilization) (ERAD substrate CD3-δ [3]) | gp78 ubiquitylation (ubiquitin immunoreactivity) (gp78 [4]) |
| --- | --- | --- | --- | --- | --- |
| B1 | retained E2 binding | enhanced loss of CD3-δ | did not stabilize gp78 | – | – |
| B2 | loss of E2 binding | minimal stabilization of CD3-δ | stabilized gp78 | – | – |
| B3 | – | accelerated | – | decreased CD3-δ levels | ubiquitylation was observed |
